Patent US20170312332A1 (Stanford University, published 2017)
Ends that are not written are not given here.

Target: recombinant Drp1 (GST-Drp1) (human, UniProt O00429 1-736)
Experiment: cell-based or functional assay

Chain of recombinant Drp1 (GST-Drp1) (O00429 other isoform, or with tags, fused parts or gaps): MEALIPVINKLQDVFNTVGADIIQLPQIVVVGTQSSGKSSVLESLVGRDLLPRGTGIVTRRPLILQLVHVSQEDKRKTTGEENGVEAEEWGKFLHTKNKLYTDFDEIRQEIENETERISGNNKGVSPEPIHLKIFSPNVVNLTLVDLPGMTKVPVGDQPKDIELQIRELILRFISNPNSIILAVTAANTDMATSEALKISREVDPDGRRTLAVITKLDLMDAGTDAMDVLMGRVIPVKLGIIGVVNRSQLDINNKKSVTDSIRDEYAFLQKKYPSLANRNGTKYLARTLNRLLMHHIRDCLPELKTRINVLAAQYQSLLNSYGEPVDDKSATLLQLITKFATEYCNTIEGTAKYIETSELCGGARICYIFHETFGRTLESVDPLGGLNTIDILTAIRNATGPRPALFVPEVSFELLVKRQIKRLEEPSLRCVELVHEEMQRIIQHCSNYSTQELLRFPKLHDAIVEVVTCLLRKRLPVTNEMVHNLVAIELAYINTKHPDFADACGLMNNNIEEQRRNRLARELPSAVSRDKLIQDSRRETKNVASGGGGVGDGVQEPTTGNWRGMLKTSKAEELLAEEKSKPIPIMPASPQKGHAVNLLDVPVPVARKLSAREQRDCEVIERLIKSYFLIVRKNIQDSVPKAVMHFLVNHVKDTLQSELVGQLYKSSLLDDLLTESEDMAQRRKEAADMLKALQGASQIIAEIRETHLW

B1: P109 (peptide)
peptide: RRRQRRKKRGYGGKLSAREQRD-NH2
GTPase activity of recombinant Drp1 (in vitro GTPase assay kit): 40 % inhibition
